Data: paper PMC10208126 (mAbs, 2023)

What was measured:
Human IL1RAPL1-Fc = biological target: T1, Human IL1RAPL1-Fc (human, UniProt Q9NZN1 19-357); assay: ELISA
T1 sequence (looked up): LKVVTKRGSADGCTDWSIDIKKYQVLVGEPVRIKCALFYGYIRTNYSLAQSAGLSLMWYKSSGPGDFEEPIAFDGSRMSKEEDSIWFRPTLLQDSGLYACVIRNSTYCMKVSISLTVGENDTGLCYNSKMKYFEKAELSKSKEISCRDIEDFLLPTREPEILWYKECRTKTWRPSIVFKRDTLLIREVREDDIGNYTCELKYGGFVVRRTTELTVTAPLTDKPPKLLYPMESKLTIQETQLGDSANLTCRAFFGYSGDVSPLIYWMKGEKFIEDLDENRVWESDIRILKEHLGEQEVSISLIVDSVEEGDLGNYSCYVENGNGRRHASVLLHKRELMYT

Human IL-36R-Fc = biological target: T2, Human IL-36R-Fc (human, UniProt Q9HB29 20-335); assay: ELISA
T2 sequence (looked up): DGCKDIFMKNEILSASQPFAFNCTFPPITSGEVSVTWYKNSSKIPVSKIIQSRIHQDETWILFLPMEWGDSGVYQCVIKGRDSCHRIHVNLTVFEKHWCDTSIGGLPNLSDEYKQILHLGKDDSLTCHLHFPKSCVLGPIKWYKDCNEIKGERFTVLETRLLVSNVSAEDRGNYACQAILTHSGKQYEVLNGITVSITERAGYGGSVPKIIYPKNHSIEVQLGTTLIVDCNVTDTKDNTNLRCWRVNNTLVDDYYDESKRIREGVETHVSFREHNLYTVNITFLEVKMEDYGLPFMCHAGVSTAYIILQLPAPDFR

- binding result (Human IL1RAPL1-Fc): binds
- binding result (Human IL-36R-Fc): binds
B1: Recombinant full length human IL-38 (ligand, UniProt Q8WWZ1 1-152, looked up)
chain: MCSLPMARYYIIKYADQKALYTRDGQLLVGDPVADNCCAEKICILPNRGLARTKVPIFLGIQGGSRCLACVETEEGPSLQLEDVNIEELYKGGEEATRFTFFQSSSGSAFRLEAAAWPGWFLCGPAEPQQPVQLTKESEPSARTKFYFEQSW
